Test results from patent US20250353912A1 (published 2025).
Changes are numbered by the printed parent chain. One block for each binder: values may come before it. Where no end group is shown, it is not given here. [ ]: non-standard residue; d: D form.

Legend:
CD3 on Jurkat cells = CD3 on Jurkat cells (UniProt P07766 23-207); test: cell binding, flow cytometry
[1] = biological target: HLA-A*01:01 in complex with the BTK peptide … conjugated with Ibrutinib (human;, ibrutinib covalently bound to Cys); test: multiplex bead-binding assay
RAS-AMG510 = test: cell binding, flow cytometry (peptide-pulsed Raji cells); apparent KD
[2] = biological target: T1, KRAS(G12C) residues 4-18 peptide conjugated to AMG-510; test: bead binding assay; apparent KD
T1 peptide: YKLVVVGAC(AMG‑510)GVGKSA[dPEG4]K(long chain biotin)-NH2

Kd (CD3 on Jurkat cells): 200 nM
B1: AMRA3-7D_CrossMab (bispecific antibody)
chain: EVQLLESGGGLVQPGGSLRLSCAASGFTFSTYAMNWVRQAPGKGLEWVSRIRSKYNNYATYYADSVKGRFTISRDDSKNTLYLQMNSLRAEDTAVYYCVRHGNFGNSYVSWFAYWGQGTLVTVSSASVAAPSVFIFPPSDEQLKSGTASVVCLLNNFYPREAKVQWKVDNALQSGNSQESVTEQDSKDSTYSLSSTLTLSKADYEKHKVYACEVTHQGLSSPVTKSFNRGEC
heavy 1: not shown
heavy 2: EVQLVESGGGLVQPGGSLRLSCAASGFTFSDYSIHWVRQAPGKGLEWVASISSSSGSTSYADSVKGRFTISADTSKNTAYLQMNSLRAEDTAVYYCARGGWYPAMDYWGQGTLVTVSSASTKGPSVFPLAPSSKSTSGGTAALGCLVEDYFPEPVTVSWNSGALTSGVHTFPAVLQSSGLYSLSSVVTVPSSSLGTQTYICNVNHKPSNTKVDEKVEPKSCDKTHTCPPCPAPEAAGGPSVFLFPPKPKDTLMISRTPEVTCVVVDVSHEDPEVKFNWYVDGVEVHNAKTKPREEQYNSTYRVVSVLTVLHQDWLNGKEYKCKVSNKALGAPIEKTISKAKGQPREPQVCTLPPSRDELTKNQVSLSCAVKGFYPSDIAVEWESNGQPENNYKTTPPVLDSDGSFFLVSKLTVDKSRWQQGNVFSCSVMHEALHNHYTQKSLSLSP
light: DIQMTQSPSSLSASVGDRVTITCRASQSVSSAVAWYQQKPGKAPKLLIYSASSLYSGVPSRFSGSRSGTDFTLTISSLQPEDFATYYCQQISYVKKLITFGQGTKVEIKRTVAAPSVFIFPPSDRKLKSGTASVVCLLNNFYPREAKVQWKVDNALQSGNSQESVTEQDSKDSTYSLSSTLTLSKADYEKHKVYACEVTHQGLSSPVTKSFNRGEC

Kd [1]: 0.04 nM
B2: IBA1-21 (antibody, V domains shown)
VH: EVQLVESGGGLVQPGGSLRLSCAASGFTISSSSIHWVRQAPGKGLEWVASISSYYGYTSYADSVKGRFTISADTSKNTAYLQMNSLRAEDTAVYYCARYYSYSSGYGYYDYFDWGAMDYWGQGTLVTVSS
VL: DIQMTQSPSSLSASVGDRVTITCRASQSVSSAVAWYQQKPGKAPKLLIYSASSLYSGVPSRFSGSRSGTDFTLTISSLQPEDFATYYCQQMQYSGWLITFGQGTKVEIKR

Kd [1]: 170 nM
B3: IBA1-7 (antibody, V domains shown)
VH: EVQLVESGGGLVQPGGSLRLSCAASGFTLSSSSIHWVRQAPGKGLEWVASISSYYGSTSYADSVKGRFTISADTSKNTAYLQMNSLRAEDTAVYYCARMHYSWQEYYSYDWGMDYWGQGTLVTVSS
VL: B2 VL with M91S, Q92Y, Y93W, S94W, G95K, W96S, I98V

Kd [1]: 0.65 nM
B4: IBA1-4 (antibody, V domains shown)
VH: EVQLVESGGGLVQPGGSLRLSCAASGFTVSSSSIHWVRQAPGKGLEWVASIYSYSGSTYYADSVKGRFTISADTSKNTAYLQMNSLRAEDTAVYYCARQYSSSYYVWPGMDYWGQGTLVTVSS
VL: B2 VL with M91Y, Q92H, S94W, G95A, W96S

Kd (RAS-AMG510): 52 nM
B5: AMRA311-18 hIgG1 (antibody, V domains shown)
VH: EVQLVESGGGLVQPGGSLRLSCAASGFTISSSSIHWVRQAPGKGLEWVASIYSSSGSTSYADSVKGRFTISADTSKNTAYLQMNSLRAEDTAVYYCARVYSSRYWGWGVAFDYWGQGTLVTVSS
VL: B2 VL with M91W, Q92N, Y93W, S94A, G95D, W96Y, I98V

Kd [1]: 0.52 nM
B6: IBA1-19 (antibody, V domains shown)
VH: EVQLVESGGGLVQPGGSLRLSCAASGFTFSYSSIHWVRQAPGKGLEWVASIYPSSGYTSYADSVKGRFTISADTSKNTAYLQMNSLRAEDTAVYYCARGWWYWMAWDYAMDYWGQGTLVTVSS
VL: B2 VL with M91S, Q92W, Y93M, G95D, W96S

Kd [1]: 0.137 nM
B7: IBA1-13 (antibody, V domains shown)
VH: EVQLVESGGGLVQPGGSLRLSCAASGFTLSSSSIHWVRQAPGKGLEWVASIYSSYGYTYYADSVKGRFTISADTSKNTAYLQMNSLRAEDTAVYYCARYYYYWYGGMDYWGQGTLVTVSS
VL: DIQMTQSPSSLSASVGDRVTITCRASQSVSSAVAWYQQKPGKAPKLLIYSASSLYSGVPSRFSGSRSGTDFTLTISSLQPEDFATYYCQQGHDMNPVTFGQGTKVEIKR

Kd [2]: 0.2 nM
B8: P2AMR-1 in the human IgG1 format (antibody, V domains shown)
VH: QVQLVQSEPEVKKPGSSVKLSCKASGGTFSTDAITWVRQAPGQGLEYMGGIIPLLDSVDYAQRFQGRVTVSADKSTGTAYMEVRSLGSEDTAKYYCAKWSSVDTGLDYWGQGTLVTVSS
VL: QSVLIQPRSVSGSPGQSVTISCTGTSSDVGGYNYVSWYQQHPGKAPKLMIYDVSKRPSGVPDRFSGSKSGNTASLTVSGLQAEDEADYYCGSYADTDTIVFGTGTKLTVL

Kd [1]: 62 nM
B9: IBA1-8 (antibody, V domains shown)
VH: EVQLVESGGGLVQPGGSLRLSCAASGFTISYSSIHWVRQAPGKGLEWVASIYPSYGSTSYADSVKGRFTISADTSKNTAYLQMNSLRAEDTAVYYCARWQGYYQPALDYWGQGTLVTVSS
VL: DIQMTQSPSSLSASVGDRVTITCRASQSVSSAVAWYQQKPGKAPKLLIYSASSLYSGVPSRFSGSRSGTDFTLTISSLQPEDFATYYCQQPYYPLITFGQGTKVEIKR

Kd (RAS-AMG510): 71 nM
B10: AMRA311-16 hIgG1 (antibody, V domains shown)
VH: EVQLVESGGGLVQPGGSLRLSCAASGFTISSSSIHWVRQAPGKGLEWVAYISSYSGYTYYADSVKGRFTISADTSKNTAYLQMNSLRAEDTAVYYCARYWYGHYHSYFGLDYWGQGTLVTVSS
VL: B9 VL with P91S, Y92S, Y93S, P94S

Kd (RAS-AMG510): 180 nM
B11: AMRA311-17 hIgG1 (antibody, V domains shown)
VH: EVQLVESGGGLVQPGGSLRLSCAASGFTISSSSIHWVRQAPGKGLEWVASISSYSGSTYYADSVKGRFTISADTSKNTAYLQMNSLRAEDTAVYYCARYPYGSHVYTGLDYWGQGTLVTVSS
VL: B9 VL with P91S, Y92S, Y93S, P94S
